This note sets out measurements from patent US20110206615A1.

In this assay the target is mKO2-Nrf2 fusion molecule (mKO2 fused to amino acids 1-100 of human Nrf2, released from the probe reagent mKO2-Nrf2-100-T2A-Keap1 by self-cleavage at T2A) (human) (UniProt Q16236). Nature of the assay: cell-based or functional assay.
Chain of UniProt Q16236 (Q16236 other isoform, or with tags, fused parts or gaps): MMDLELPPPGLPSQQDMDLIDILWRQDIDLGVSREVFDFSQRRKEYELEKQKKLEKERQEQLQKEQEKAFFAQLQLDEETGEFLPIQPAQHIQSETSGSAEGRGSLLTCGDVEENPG

Take “human Keap1 (regulatory factor, released from mKO2-Nrf2-100-T2A-Keap1 by self-cleavage at T2A) (from UniProt Q14145 1-624)”: the fluorescent intensity of mKO2 in HeLa cells after addition of DEM (oxidative stress inducer) at 100 µM is 10 times.
